Data published in a protein production outcome set (Wang et al. 2014).

Assay: label from the status in PepcDB records

Row | Sequence | protein production
1 | MDQKSTTCLEALAKLSQQREHQTTPATLCSSEHFFANETIYSDATFLSTTEEAFISSPSSSTQGPKPGLKRVSTGPMTRILEGCQNDKPNSPELERVEEAEDNYSGTSSEEAFSQGIPYPHQVGGHGALSSFERGRVLKPAAKKEIDFYNFIYSDNLPSELEWLRTVTPKYFGQRKTQAKAKRILENQVTPFSQTSSVPVNTVLHIDRKDSERNIWKDQVGELVMDTNPWARACLLKELQKEDEVKSFIILEDLTCHLKKPCVLDCKMGTRHYDDDATEEKKKAHIEKATKTTSSSTGIRFTGMQVYKLPSHTFLFHDKYYGRQLKSHELKNELFEFFHNGVLLRVDIIEQFLSKLQWLYQHLENQHYFNFYSSSLLFVYEGDEMATCPISDVRMIDFAHTQRCVEEQQNDGYLFGLSNLIHLMKSLLEDERNEMR | failed
2 | VWICTKCVRCKSCGSTTPGKGWDAQWSHDFSLCHDCAKLFAKGNFCPLCDKCYDDDDYESKMMQCGKCDRWVHSKCENLSDEMYEILSNLPESVAYTCVNCTERHPAEWRLALEKELQISLKQVLTALLNSRTTSHLLRYRQAAKPPDLNPETEESIPSRSSPEGPDPPVLTEVSKQDDQQPLDLEGVKRKMDQGNYTSVLEFSDDIVKIIQAAINSDGGQPEIKKANSMVKSFFIRQMERVFPWFSVKKSRFWEPNKVSSNSGMLPNAVLPPSLDHNYAQWQEREENSHTEQ | failed
3 | MPKRRGHGEGTVYQRPDGRWTAQITVGIDHEGKQRRLTLYGKSKKEVLEKLTQALYQQQNGGFIEPSKITVEQWLNRWLTDYAKPHLRQSTWESYETVLRLHVIPTLGSIPLKKLQPADIQRLYASKLESGLSPTRVRYIHVVLHEAMSQARESGLLLQNPTEAAKPPRHPKKKVQPLNPEQVKRFLETAKQDPLYPAFLLALGTGLRRGEILGLRWQDLDLQKGILQVRQSLIRTREGLKFEEPKTEKSRRQIPLPPSVVAALKRHKAWVNQNKLILGPDYEDHDLVFPVENGRPRDPKGFAEYFNRLLDKAGLPHIRLHDLRHTHATLLLLEGVHPKVVQERLGHSTVSITLDIYSHILPGLQEKAAERIDGLLQPKENPSPKEGTIK | failed
4 | MNAHRAQLISLARPVYFSLLASVAAGIINTVWVSRLGGPAVAAVAVATNTENVLLGVALVFASGTTVLVAHARGAQDPGAVRAAVRGGWALCAVVTPVVAGCGYLLREPLARLVLGGEGPALPLAVGYFAISLPGITVFYAQNLVDGILKGAGDTRTPMRLALLANGLILALDPLLIHRYGVRGAAVSTVLCRCAALGVGLLALRRNALLRGAAAVRPAEATGAALRRTLSTGLPMSADFTVRQGGALVLVAIVARLGVTAVAAYSIAYKVMYVATMAFYAVRQAASIHTAHTRGADRRASSRSAGAGSGGERRAIGRQAVVVSGTVGLLASALLCVLAPWVMRAFGAGPEVAHQGVLFLRCVGPYLLLMACFIALGGVFEGSGGAPVLLRVTLLGTAVQLPLAYALSGLGLPGICLALALAMVVQCAALLPGVRRQEDARDSLVRVA | failed
5 | SAVLVALSLAGLPTDRFFFDGFLPSKQGARRARLGELAAIDATLVLFEAGSRIQNSVHDLADLLGATREAAICRELTKLHQEVRRATLAELAAQADTMETRGEFVVVIAP | failed
6 | MYLAEALAQRVEAQRRYSELNQLLLDVAKVQEGDQPAENPHEILTELEELTTRINDLVRRINRTNSVTEFSEGMTLADALSVRDALLKKRTLYSDLADQLTSRQDRYSRSEIKYVATMDAREIRKKADLAAKEYRQLDVDIQRLNWQTELQ | failed
7 | MINRVPTNIITGFLGVGKTTAILHLLATKPAHEKWAVLVNEFGEIGIDGAIMSEQGAMIKEVPGGCLCCTAGVPMSVGINALLRQKPDRLIIEPTGLGHPKQVVATLISEQYQPYVDLKATIALMDPRHLSMDKYRSNQNFNDQLASADIVLGNKVDQCSSSDIDAFNDWVTDQTPAKTFSQLIKQGQFPIELLDMPRLVGHASTHIDSHHHHHAADEPQFQLAPQQPFLRKENRGQGYFSCGWLFGAEYQFNFDLLFQLLNDLTAERVKGVLNTDRGCYAFNVANGVVSVTEMSLDGFESRLEVIDSQLMPWSELESILLKIAGIPQALEHHHHHH | failed
8 | MSLRRRFCAFLKGMQSPMIFDVKAPILGFETIHKMRLQKIDEIFLRLNSTEENSVVSFTLVNPFALRKYEFEVPTPLKILLELEGAKSVLVANIMVVQTPIELSTVNYLAPLIFNLDKQLMGQVVLDSNKYPHYHLRENILSHTHE | failed
9 | MYESANVSDDADRTAFRRAEKKYKLYYEQDSKFSRKKKLPKPIDLSELLDFNLISQNFNNDGVLPDGIRVSKVDSSPVFCIDNRPGFYFIPDALSLKEQCKWIKESLTSFPQPPNRTNHNAIYGPIDDLFDSAKENKVLVQDDLTNNKWKFYEEVDIEKATRSSCKSVSASVLLRKLRWSTLGLQFDWSKRNYDVSLPHNNIPDALCQLAKTHAAIAMPDGEEFRPEGAIVNYFGIGDTLGGHLDDMEADWSKPIVSMSLGCKAIFLLGGKSKDDPPHAMYLRSGDVVLMAGEARECFHGNLLHFQLDGIPRIFTGEENADIGALESELSHESGHFFAEYIKTSRININIRQVF | failed
10 | MAEKALATLKELAFLEDPSPVERDAAIQRFEYTFEAFWKALQAYLREKEGLEGASPKGVIRLAREVGLLRDEEARLALGMVDDRSLTVHTYNEPLARAIFRRLPDYARLMEQVLGRLRR | not failed
11 | VDKCDEPLSILVRNNKGRSSTYEVRLTQTVAHLKQQVSGLEGVQDDLFWLTFEGKPLEDQLPLGEYGLKPLSTVFMNLRLRGGGTEP | failed
12 | MAAARDQLQMAADVARLGIWRWNLADDSLQWNERMCEMYGQPLALRDGGLVYEHWRSRLHPEDLERTEASLRAAVEGRGNYDVIFRVVLPDGGIRFIQAGAQVERDADGNPLQVTGINIDITSDQQLQARLREAKEQADAASAAKSSFLANMSHEIRTPMNAVLGML | failed
13 | MSNHIDRDVINALIAGHFADPFSVLGMHRTDAGLEVRALLPDATDVWVIEPKTGRKVGKLECLDSRGFFSGVLPRRKNAFRYQLAVTWHGQQNLIDDPYRFGPLLQ | not failed
14 | MEDFNMESDSFEDFWKGEDLSNYSYSSTLPPFLLDAAPCEPESLEINKYFVVIIYALVFLLSLLGNSLVMLVILYSRVGRSVTDVYLLNLALADLLFALTLPIWAASKVNGWIFGTFLCKVVSLLKEVNFYSGILLLACISVDRYLAIVHATRTLTQKRYLVKFICLSIWGLSLLLALPVLLFRRTVYSSNVSPACYEDMGNNTANWRMLLRILPQSFGFIVPLLIMLFCYGFTLRTLFKAHMGQKHRAMRVIFAVVLIFLLCWLPYNLVLLADTLMRTQVIQETCERRNHIDRALDATEILGILHSCLNPLIYAFIGQKFRHGLLKILAIHGLISKDSLPKDSRPSFVGSSSGHTSTTL | not failed
15 | MKAVTTSPSDPPDPFDPLDPVDPLASTKPEVDVVLPCLDEADALPWVLARIPPGWRALVVDNGSTDGSAEIARRLGATVVPETRRGFGAACHAGLTAATADIVCFCDCDGSLDPSLLVPFVREVRDGAADLVLGRRRPHGRGAWPAHARAGNLALARMLRRRTGLRLHDLGPLRAARREPLLALGLTDRRSGYPLQMVVRAADAGWRIAEHDVPYLPRTGVSKVTGTWRGTWQAVRDMSRVLAEPAQDGPPESGSLSSSQGGSSQLEHHHHHH | failed
16 | MGKENLYVVLPSYNEEANIGKLINEWNVQFKDLEARGIKLEIIIVNDGSTDNTLAVAEAFSKHNDNVVVIDHGVNKGLGEGLNTGINYVLSQKQKGYMCLMDGDMTHEPKYIFSMLDKLQEEKLDCVIASRYRRGAKVEGLSLFRKFLSFGARVLYTIRLGIPNVRDYTCGYRLYKTSVLEKLHKVYGKRIVKETGFACMMELIVKVSKENFKIGEVPFVLKYQLKGGESKMKVGKTIKRSLLLLRVYKLEHHHHHH | not failed
17 | MERIRWLYGFLACILIAILLAPLQIMAQGEFRTSDQPLVYYIPVEQEVERGLEAFLQRSLDSAVEEGADHIVLEINTPGGRVDAAGNMARALRETDIPITAYVIDQALSAGAYIALNADEIVMAPGSTMGSAAVIDSAGNAADEKAQSYWLAEMRNAAEYNDRDPKYALAMADRSIEIPELDISNEELLTLTASQALEVNYAEAIASNRAELLEHLQIDNAFEQEMEVSFAEKLARFVTNPLIIPILLSIGSLGLVLELYSPGFGVPGIMGISALLLFFFGHLIAGFAGYEAMILFIAGFLLILIEVFMPGFGLFGILGIAGMIGGMLLASFSTAWMLVSLGISAVVTTVVAIITFRYFGSRGPWKKMILTESTSSEKGYITNETRQELVGLIGQSLTPLRPSGSGLFGEERLDVVSEGGYIEQGRKIKVVSTSGSRIVVRETDE | failed
